Test results as given in article PMC7845647.

B1: fadL promoter FadR site (FadR_fadL site) (dsDNA)
DNA 1: ATCTGGTACGACCAGAT
DNA 2: ATCTGGTCGTACCAGAT
B2: ler (LEE1) promoter distal FadR site (FadR_ler site) (dsDNA)
DNA 1: TAATCGTTTGTCCGACTTTAACAGA
DNA 2: TCTGTTAAAGTCGGACAAACGATTA

Target: FadR (Escherichia coli (EHEC) 86-24, UniProt B5YXL1 1-239)
Assay: EMSA; apo FadR, no ligand
Settings: protein: recombinant, tags: N-terminal His (pET28, NdeI/BamHI), chain copies: 2, blunt

Chain of FadR (B5YXL1 whole entry): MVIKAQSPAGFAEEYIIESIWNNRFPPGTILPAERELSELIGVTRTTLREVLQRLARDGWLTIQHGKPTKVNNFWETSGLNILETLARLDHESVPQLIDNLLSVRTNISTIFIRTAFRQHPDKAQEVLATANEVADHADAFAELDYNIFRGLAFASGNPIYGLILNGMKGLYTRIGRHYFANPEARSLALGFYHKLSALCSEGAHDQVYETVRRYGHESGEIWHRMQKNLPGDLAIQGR

Binder | binding result (label: 32P (EMSA, T4 PNK), none stated in thermal shift) | binding result (label: 32P (T4 PNK))
B1 | binds | –
B2 | – | binds
